According to patent US20140087995A1 (published 2014):
Blank lines part the entries; values can stand above or below the binder they belong to. Numbered stars: 1 amine (or outer) side, 2 acyl side, 3 side chain; on linkers, the order of the positions; unused ones are H or OH. Bridge positions count the residues as written; N and C are the ends. Side chains are listed from the residue outwards. Ends that are not written are not given here. * marks the point of attachment. C20 diacid = O=C(O)CCCCCCCCCCCCCCCCCCC(=O)*; γGlu = O=C(O)[C@H](CCC(=O)[*:2])N[*:1]; AEEA = NCCOCCOCC(=O)O

What was measured:
[1] = target: T1, human calcitonin receptor (human, UniProt P30988 25-474); assay: IC50 at hCTR divided by IC50 at hAmylin-R (SPA competition assays V and VII)
T1 construct: whole, on cells; Assayed as cell membranes of BHK tk'ts 13 cells stably transfected with the human calcitonin receptor (Assay VII); also called hCTR; hCT
T1 sequence (looked up): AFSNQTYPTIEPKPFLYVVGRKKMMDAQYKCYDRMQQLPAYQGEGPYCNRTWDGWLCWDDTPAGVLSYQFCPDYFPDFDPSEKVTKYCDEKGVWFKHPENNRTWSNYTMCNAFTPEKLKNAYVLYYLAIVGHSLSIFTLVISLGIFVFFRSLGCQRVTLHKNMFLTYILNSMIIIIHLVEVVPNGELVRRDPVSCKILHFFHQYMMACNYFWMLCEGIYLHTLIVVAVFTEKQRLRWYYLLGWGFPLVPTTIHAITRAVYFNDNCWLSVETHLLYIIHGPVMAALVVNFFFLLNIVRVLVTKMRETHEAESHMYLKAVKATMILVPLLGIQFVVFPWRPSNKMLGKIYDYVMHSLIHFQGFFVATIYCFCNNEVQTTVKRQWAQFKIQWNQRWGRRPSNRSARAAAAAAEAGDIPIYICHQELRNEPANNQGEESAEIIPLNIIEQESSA
Method in brief: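 Competition binding by SPA uses membrane preparations (35 ng/μL final) in pH 7.4 Hepes buffer with 1 mM CaCl2 and 5 mM MgCl₂. Incubation lasts 120 min at 25° C, and IC₅₀ comes from one-site fitting.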

[2] = target: T1, human calcitonin receptor; assay: SPA competition vs 125I-calcitonin, membranes of BHK cells with human calcitonin receptor (Assay VII)
Method in brief: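 BHK hCTR membranes 35 ng/μL + SPA beads 0.05 mg/well; buffer 50 mM Hepes pH 7.4, 1 mM CaCl2, 5 mM MgCl₂, 0.1% OA, 0.02% Tween20. 120 min, 25° C., shaking. Scintillation count; IC50 by one-site binding competition.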

B1: N^ε1-[2-[2-[2-[[(4S)-4-carboxy-4-(19-carboxynonadecanoylamino)butanoyl]amino]ethoxy]ethoxy]acetyl]-[Arg17,Pro21,Pro27,Pro28,Pro34]-h-amylin (peptide)
peptide: K([AEEA-γGlu-C20 diacid])CNTATCATQRLANFLRHSSPNFGAIPPSTNVGPNTY-NH2
modifications: disulfide 2-7; N-terminus assumed
SMILES: CC[C@H](C)[C@H](NC(=O)[C@H](C)NC(=O)CNC(=O)[C@H](Cc1ccccc1)NC(=O)[C@H](CC(N)=O)NC(=O)[C@@H]1CCCN1C(=O)[C@H](CO)NC(=O)[C@H](CO)NC(=O)[C@H](Cc1c[nH]cn1)NC(=O)[C@H](CCCNC(=N)N)NC(=O)[C@H](CC(C)C)NC(=O)[C@H](Cc1ccccc1)NC(=O)[C@H](CC(N)=O)NC(=O)[C@H](C)NC(=O)[C@H](CC(C)C)NC(=O)[C@H](CCCNC(=N)N)NC(=O)[C@H](CCC(N)=O)NC(=O)[C@@H](NC(=O)[C@H](C)NC(=O)[C@@H]1CSSC[C@H](NC(=O)[C@@H](N)CCCCNC(=O)COCCOCCNC(=O)CC[C@H](NC(=O)CCCCCCCCCCCCCCCCCCC(=O)O)C(=O)O)C(=O)N[C@@H](CC(N)=O)C(=O)N[C@@H]([C@@H](C)O)C(=O)N[C@@H](C)C(=O)N[C@@H]([C@@H](C)O)C(=O)N1)[C@@H](C)O)C(=O)N1CCC[C@H]1C(=O)N1CCC[C@H]1C(=O)N[C@@H](CO)C(=O)N[C@H](C(=O)N[C@@H](CC(N)=O)C(=O)N[C@H](C(=O)NCC(=O)N1CCC[C@H]1C(=O)N[C@@H](CC(N)=O)C(=O)N[C@H](C(=O)N[C@@H](Cc1ccc(O)cc1)C(N)=O)[C@@H](C)O)C(C)C)[C@@H](C)O
notes: also called compound 55
Ratio hCT/hAmylin binding [1]: 51.8
IC50 [2]: 2.17 nM

B2: N^ε1-[2-[2-[2-[[(4S)-4-carboxy-4-(19-carboxynonadecanoylamino)butanoyl]amino]ethoxy]ethoxy]acetyl]-[Arg17,Pro21,Pro27,Pro29,Pro34]-h-amylin (peptide)
peptide: K([AEEA-γGlu-C20 diacid])CNTATCATQRLANFLRHSSPNFGAIPSPTNVGPNTY-NH2
modifications: disulfide 2-7; N-terminus assumed
SMILES: CC[C@H](C)[C@H](NC(=O)[C@H](C)NC(=O)CNC(=O)[C@H](Cc1ccccc1)NC(=O)[C@H](CC(N)=O)NC(=O)[C@@H]1CCCN1C(=O)[C@H](CO)NC(=O)[C@H](CO)NC(=O)[C@H](Cc1c[nH]cn1)NC(=O)[C@H](CCCNC(=N)N)NC(=O)[C@H](CC(C)C)NC(=O)[C@H](Cc1ccccc1)NC(=O)[C@H](CC(N)=O)NC(=O)[C@H](C)NC(=O)[C@H](CC(C)C)NC(=O)[C@H](CCCNC(=N)N)NC(=O)[C@H](CCC(N)=O)NC(=O)[C@@H](NC(=O)[C@H](C)NC(=O)[C@@H]1CSSC[C@H](NC(=O)[C@@H](N)CCCCNC(=O)COCCOCCNC(=O)CC[C@H](NC(=O)CCCCCCCCCCCCCCCCCCC(=O)O)C(=O)O)C(=O)N[C@@H](CC(N)=O)C(=O)N[C@@H]([C@@H](C)O)C(=O)N[C@@H](C)C(=O)N[C@@H]([C@@H](C)O)C(=O)N1)[C@@H](C)O)C(=O)N1CCC[C@H]1C(=O)N[C@@H](CO)C(=O)N1CCC[C@H]1C(=O)N[C@H](C(=O)N[C@@H](CC(N)=O)C(=O)N[C@H](C(=O)NCC(=O)N1CCC[C@H]1C(=O)N[C@@H](CC(N)=O)C(=O)N[C@H](C(=O)N[C@@H](Cc1ccc(O)cc1)C(N)=O)[C@@H](C)O)C(C)C)[C@@H](C)O
notes: also called compound 56
Ratio hCT/hAmylin binding [1]: 42.6
IC50 [2]: 2.09 nM

B5: N^ε1-[2-[2-[2-[[(4S)-4-carboxy-4-(19-carboxynonadecanoylamino)butanoyl]amino]ethoxy]ethoxy]acetyl]-[Arg17,Pro21,Pro27,Pro34,His35]-h-amylin (peptide)
peptide: K([AEEA-γGlu-C20 diacid])CNTATCATQRLANFLRHSSPNFGAIPSSTNVGPHTY-NH2
modifications: disulfide 2-7; N-terminus assumed
SMILES: CC[C@H](C)[C@H](NC(=O)[C@H](C)NC(=O)CNC(=O)[C@H](Cc1ccccc1)NC(=O)[C@H](CC(N)=O)NC(=O)[C@@H]1CCCN1C(=O)[C@H](CO)NC(=O)[C@H](CO)NC(=O)[C@H](Cc1c[nH]cn1)NC(=O)[C@H](CCCNC(=N)N)NC(=O)[C@H](CC(C)C)NC(=O)[C@H](Cc1ccccc1)NC(=O)[C@H](CC(N)=O)NC(=O)[C@H](C)NC(=O)[C@H](CC(C)C)NC(=O)[C@H](CCCNC(=N)N)NC(=O)[C@H](CCC(N)=O)NC(=O)[C@@H](NC(=O)[C@H](C)NC(=O)[C@@H]1CSSC[C@H](NC(=O)[C@@H](N)CCCCNC(=O)COCCOCCNC(=O)CC[C@H](NC(=O)CCCCCCCCCCCCCCCCCCC(=O)O)C(=O)O)C(=O)N[C@@H](CC(N)=O)C(=O)N[C@@H]([C@@H](C)O)C(=O)N[C@@H](C)C(=O)N[C@@H]([C@@H](C)O)C(=O)N1)[C@@H](C)O)C(=O)N1CCC[C@H]1C(=O)N[C@@H](CO)C(=O)N[C@@H](CO)C(=O)N[C@H](C(=O)N[C@@H](CC(N)=O)C(=O)N[C@H](C(=O)NCC(=O)N1CCC[C@H]1C(=O)N[C@@H](Cc1c[nH]cn1)C(=O)N[C@H](C(=O)N[C@@H](Cc1ccc(O)cc1)C(N)=O)[C@@H](C)O)C(C)C)[C@@H](C)O
notes: also called compound 58
Ratio hCT/hAmylin binding [1]: 109
IC50 [2]: 9.63 nM

Next, values leading:

Ratio hCT/hAmylin binding [1]: 104
IC50 [2]: 5.38 nM
Binder: K([AEEA-γGlu-C20 diacid])CNTATCATQRLANFLRHSSPNFGAIPPSTPVGSNTY-NH2 (disulfide 2-7, also called compound 53)

Ratio hCT/hAmylin binding [1]: 146
IC50 [2]: 4.38 nM
B3: N^ε1-[2-[2-[2-[[(4S)-4-carboxy-4-(19-carboxynonadecanoylamino)butanoyl]amino]ethoxy]ethoxy]acetyl]-[Arg17,Pro21,Pro27,Pro29,Pro31]-h-amylin (peptide)
peptide: K([AEEA-γGlu-C20 diacid])CNTATCATQRLANFLRHSSPNFGAIPSPTPVGSNTY-NH2
modifications: disulfide 2-7; N-terminus assumed
SMILES: CC[C@H](C)[C@H](NC(=O)[C@H](C)NC(=O)CNC(=O)[C@H](Cc1ccccc1)NC(=O)[C@H](CC(N)=O)NC(=O)[C@@H]1CCCN1C(=O)[C@H](CO)NC(=O)[C@H](CO)NC(=O)[C@H](Cc1c[nH]cn1)NC(=O)[C@H](CCCNC(=N)N)NC(=O)[C@H](CC(C)C)NC(=O)[C@H](Cc1ccccc1)NC(=O)[C@H](CC(N)=O)NC(=O)[C@H](C)NC(=O)[C@H](CC(C)C)NC(=O)[C@H](CCCNC(=N)N)NC(=O)[C@H](CCC(N)=O)NC(=O)[C@@H](NC(=O)[C@H](C)NC(=O)[C@@H]1CSSC[C@H](NC(=O)[C@@H](N)CCCCNC(=O)COCCOCCNC(=O)CC[C@H](NC(=O)CCCCCCCCCCCCCCCCCCC(=O)O)C(=O)O)C(=O)N[C@@H](CC(N)=O)C(=O)N[C@@H]([C@@H](C)O)C(=O)N[C@@H](C)C(=O)N[C@@H]([C@@H](C)O)C(=O)N1)[C@@H](C)O)C(=O)N1CCC[C@H]1C(=O)N[C@@H](CO)C(=O)N1CCC[C@H]1C(=O)N[C@H](C(=O)N1CCC[C@H]1C(=O)N[C@H](C(=O)NCC(=O)N[C@@H](CO)C(=O)N[C@@H](CC(N)=O)C(=O)N[C@H](C(=O)N[C@@H](Cc1ccc(O)cc1)C(N)=O)[C@@H](C)O)C(C)C)[C@@H](C)O
notes: also called compound 54

Ratio hCT/hAmylin binding [1]: 133
IC50 [2]: 15.3 nM
B4: N^ε1-[2-[2-[2-[[(4S)-4-carboxy-4-(19-carboxynonadecanoylamino)butanoyl]amino]ethoxy]ethoxy]acetyl]-[Arg17,Pro21,Pro27,Pro31,His35]-h-amylin (peptide)
peptide: K([AEEA-γGlu-C20 diacid])CNTATCATQRLANFLRHSSPNFGAIPSSTPVGSHTY-NH2
modifications: disulfide 2-7; N-terminus assumed
SMILES: CC[C@H](C)[C@H](NC(=O)[C@H](C)NC(=O)CNC(=O)[C@H](Cc1ccccc1)NC(=O)[C@H](CC(N)=O)NC(=O)[C@@H]1CCCN1C(=O)[C@H](CO)NC(=O)[C@H](CO)NC(=O)[C@H](Cc1c[nH]cn1)NC(=O)[C@H](CCCNC(=N)N)NC(=O)[C@H](CC(C)C)NC(=O)[C@H](Cc1ccccc1)NC(=O)[C@H](CC(N)=O)NC(=O)[C@H](C)NC(=O)[C@H](CC(C)C)NC(=O)[C@H](CCCNC(=N)N)NC(=O)[C@H](CCC(N)=O)NC(=O)[C@@H](NC(=O)[C@H](C)NC(=O)[C@@H]1CSSC[C@H](NC(=O)[C@@H](N)CCCCNC(=O)COCCOCCNC(=O)CC[C@H](NC(=O)CCCCCCCCCCCCCCCCCCC(=O)O)C(=O)O)C(=O)N[C@@H](CC(N)=O)C(=O)N[C@@H]([C@@H](C)O)C(=O)N[C@@H](C)C(=O)N[C@@H]([C@@H](C)O)C(=O)N1)[C@@H](C)O)C(=O)N1CCC[C@H]1C(=O)N[C@@H](CO)C(=O)N[C@@H](CO)C(=O)N[C@H](C(=O)N1CCC[C@H]1C(=O)N[C@H](C(=O)NCC(=O)N[C@@H](CO)C(=O)N[C@@H](Cc1c[nH]cn1)C(=O)N[C@H](C(=O)N[C@@H](Cc1ccc(O)cc1)C(N)=O)[C@@H](C)O)C(C)C)[C@@H](C)O
notes: also called compound 57
